Assay [1] has as its target T1, tissue-type plasminogen activator (tPA, Actilyse, Boehringer-Ingelheim) (human, UniProt P00750 36-562).
T1 construct: Commercial product; also called recombinant human tPA
Kind of assay: ELISA, immobilized tPA overlaid with a concentration series of β2GPI. On the technique in general: An ELISA detects its analyte on a solid surface through an enzyme-linked reagent.

Assay [2] deals with T2, human factor XII from plasma (Calbiochem) (human, UniProt P00748 20-615).
T2 construct: also called FXII
T2 sequence (looked up): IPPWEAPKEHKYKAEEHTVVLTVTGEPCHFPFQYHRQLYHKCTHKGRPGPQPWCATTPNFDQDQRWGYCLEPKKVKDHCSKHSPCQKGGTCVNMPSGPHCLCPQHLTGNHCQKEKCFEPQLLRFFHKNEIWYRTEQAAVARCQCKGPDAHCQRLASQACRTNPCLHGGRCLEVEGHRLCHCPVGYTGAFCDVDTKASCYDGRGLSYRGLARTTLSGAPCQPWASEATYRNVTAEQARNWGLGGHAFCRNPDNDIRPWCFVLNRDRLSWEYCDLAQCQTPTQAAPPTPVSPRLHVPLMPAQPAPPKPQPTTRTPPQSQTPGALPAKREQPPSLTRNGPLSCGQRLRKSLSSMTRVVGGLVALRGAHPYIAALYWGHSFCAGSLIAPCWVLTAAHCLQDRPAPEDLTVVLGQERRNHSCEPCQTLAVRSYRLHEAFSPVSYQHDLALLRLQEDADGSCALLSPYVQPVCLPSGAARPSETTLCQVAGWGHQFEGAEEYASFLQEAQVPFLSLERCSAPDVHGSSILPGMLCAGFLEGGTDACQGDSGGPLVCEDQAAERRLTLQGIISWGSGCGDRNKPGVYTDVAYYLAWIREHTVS
The assay can be described thus: ELISA, immobilized factor XII overlaid with a concentration series of β2GPI.

For assay [3], the target named is T3, anti-β2GPI auto-antibodies purified from plasma of patients with the Anti-phospholipid syndrome.
T3 construct: Polyclonal mixture; also called patient antibodies
The assay can be described thus: competition ELISA: patient anti-β2GPI auto-antibodies with a β2GPI series in solution on immobilized plasma β2GPI. On the procedure: C. […] Eluted fractions are analyzed on Western blot after SDS-PA electrophoresis. […] Anti-β₂GPI auto-antibodies were purified from plasma of patients with the autoimmune disease Anti-phospholipid syndrome.

Assay [4] addresses T1, tissue-type plasminogen activator (tPA, …). Kind of assay: tPA binding (data not shown).

T1 sequence (P00750 36-562 limits assumed): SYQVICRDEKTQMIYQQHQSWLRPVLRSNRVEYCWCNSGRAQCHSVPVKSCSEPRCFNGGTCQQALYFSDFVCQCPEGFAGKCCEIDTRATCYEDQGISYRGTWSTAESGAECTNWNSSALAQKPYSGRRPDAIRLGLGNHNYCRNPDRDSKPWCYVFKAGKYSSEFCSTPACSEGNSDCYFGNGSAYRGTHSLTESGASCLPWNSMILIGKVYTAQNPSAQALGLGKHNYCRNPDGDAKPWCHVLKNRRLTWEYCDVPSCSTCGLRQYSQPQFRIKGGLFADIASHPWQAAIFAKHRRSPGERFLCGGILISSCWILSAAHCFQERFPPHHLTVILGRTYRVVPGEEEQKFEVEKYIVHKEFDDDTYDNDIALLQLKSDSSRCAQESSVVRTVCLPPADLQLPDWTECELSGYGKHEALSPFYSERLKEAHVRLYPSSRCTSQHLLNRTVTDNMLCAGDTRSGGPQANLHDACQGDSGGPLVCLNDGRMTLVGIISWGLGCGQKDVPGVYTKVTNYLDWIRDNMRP

B1: recombinant human β2-glycoprotein I (other, UniProt P02749 20-345, looked up)
chain: GRTCPKPDDLPFSTVVPLKTFYEPGEEITYSCKPGYVSRGGMRKFICPLTGLWPINTLKCTPRVCPFAGILENGAVRYTTFEYPNTISFSCNTGFYLNGADSAKCTEEGKWSPELPVCAPIICPPPSIPTFATLRVYKPSAGNNSLYRDTAVFECLPQHAMFGNDTITCTTHGNWTKLPECREVKCPFPSRPDNGFVNYPAKPTLYYKDKATFGCHDGYSLDGPEEIECTKLGNWSAMPSCKASCKVPVKKATVVYQGERVKIQEKFKNGMLHGDKVSFFCKNKEKKCSYTEDAQCIDGTIEVPKCFKEHSSLAFWKTDASDVKPC
notes: also called recombinant β2GPI; rβ2GPI
As usually defined, the Kd is the free concentration of one partner at which half of the binding sites on the other are occupied at equilibrium, for simple one-to-one binding. B1: the Kd in assay [1] turned out to be 51 nM; in assay [2], 20 nM. Also, in assay [3], the “IC50 (read off the curve)” value was roughly 5 µg/mL.

B2: amyloid fibrin peptide FP13 K157G (peptide)
peptide: KRLEVDIDIGIRS
notes: Preparation with cross-β structure; also called amyloid FP13 K157G
Regarding B2, the binding result in assay [4] was “binds”.

These data come from patent publication US8067187 (CROSSBETA BIOSCIENCES B V, dated 2011).
